What was measured:
[1] = target: [FeFe]-hydrogenase HydA1 from Chlamydomonas reinhardtii (C. reinhardtii)
[2] = target: [FeFe]-hydrogenase HydA1 from Chlamydomonas reinhardtii (C. reinhardtii); remark: listed apart in the source
[3] = target: [FeFe]-hydrogenase HydA2 from Chlamydomonas reinhardtii (C. reinhardtii)
[4] = target: ferredoxin-NADP+ oxidoreductase (FNR) from Chlamydomonas reinhardtii (C. reinhardtii) (UniProt P53991)
[5] = target: ferredoxin-NADP+ oxidoreductase (FNR) from Chlamydomonas reinhardtii (C. reinhardtii) (UniProt P53991); remark: listed apart in the source

Chain of UniProt P53991 (P53991 36-354): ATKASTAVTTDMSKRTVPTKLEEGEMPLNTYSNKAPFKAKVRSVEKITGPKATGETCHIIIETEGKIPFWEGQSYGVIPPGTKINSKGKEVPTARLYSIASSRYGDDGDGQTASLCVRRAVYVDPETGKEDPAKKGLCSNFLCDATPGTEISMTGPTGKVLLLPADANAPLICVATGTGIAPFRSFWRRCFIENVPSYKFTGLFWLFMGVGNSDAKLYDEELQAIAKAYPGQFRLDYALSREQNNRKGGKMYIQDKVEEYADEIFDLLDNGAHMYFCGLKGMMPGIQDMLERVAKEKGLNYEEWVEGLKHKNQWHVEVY

## ferredoxin Fdx8 from Chlamydomonas reinhardtii (natural protein)
[1]
  light-dependent H2 production of HydA1 (50 nM, 10 µM ferredoxin) left in the presence of the competitor FNR (50 nM), against the rate without FNR: 52%

## ferredoxin Fdx2 from Chlamydomonas reinhardtii (natural protein)
[2]
  H2 production rate of HydA1, 50 µM ferredoxin reduced with 10 mM sodium dithionite, against PetF (% of the rate with PetF): 40
[3]
  H2 production rate of HydA2, 50 µM ferredoxin reduced with 10 mM sodium dithionite (µmol H2 × min^−1 × mg^−1): 12.6
[4]
  NADPH-dependent cytochrome c reduction, 40 nM FNR, 5 µM ferredoxin, initial reaction speed (µM cyt c × min^−1): 121

## ferredoxin Fdx7 from Chlamydomonas reinhardtii (natural protein)
[2]
  H2 production rate of HydA1, 50 µM ferredoxin reduced with 10 mM sodium dithionite, against PetF (% of the rate with PetF): 14
[1]
  light-dependent H2 production of HydA1 (50 nM, 10 µM ferredoxin) left in the presence of the competitor FNR (50 nM), against the rate without FNR: 59%

## ferredoxin Fdx10 from Chlamydomonas reinhardtii (natural protein)
[1]
  light-dependent H2 production of HydA1 (50 nM, 10 µM ferredoxin) left in the presence of the competitor FNR (50 nM), against the rate without FNR: 43%
[5]
  NADPH-dependent cytochrome c reduction, 40 nM FNR, 5 µM ferredoxin (µM cyt c × min^−1): 23.3

## ferredoxin Fdx3 from Chlamydomonas reinhardtii (natural protein)
[1]
  light-dependent H2 production of HydA1 (50 nM, 10 µM ferredoxin) left in the presence of the competitor FNR (50 nM), against the rate without FNR: 29%
[3]
  H2 production rate of HydA2, 50 µM ferredoxin reduced with 10 mM sodium dithionite, against PetF (% of the rate with PetF): 10

## ferredoxin Fdx11 from Chlamydomonas reinhardtii (natural protein)
[5]
  NADPH-dependent cytochrome c reduction, 40 nM FNR, 5 µM ferredoxin (µM cyt c × min^−1): 34.4

## photosynthetic ferredoxin PetF from Chlamydomonas reinhardtii (from UniProt P07839 33-126) (natural protein)
[2]
  H2 production rate of HydA1, 50 µM ferredoxin reduced with 10 mM sodium dithionite (µmol H2 × min^−1 × mg^−1): 225
[3]
  H2 production rate of HydA2, 50 µM ferredoxin reduced with 10 mM sodium dithionite (µmol H2 × min^−1 × mg^−1): 63.9
[4]
  NADPH-dependent cytochrome c reduction, 40 nM FNR, 5 µM ferredoxin, initial reaction speed (µM cyt c × min^−1): 84.2

— publication PMC9569306
